Here are results for one molecule from US20240016892A1 (SHATTUCK LABS, published 2024).

The target of test [1] is T1, cell surface human LTβR (A375 cells; U2OS/NIK/NFκB reporter cells) (human, UniProt P36941 31-435).
T1 construct: whole, on cells; also called cell surface LTβR
Kind of test: flow cytometry, A375 cells that express human LTβR; cell surface LTβR. On the technique in general: A flow cytometer gives signals particle by particle.

In test [2] the target is T2, anti-human LIGHT-biotin antibody (MSD detection).
T2 construct: also called anti-LIGHT antibody
The test can be described thus: MSD sandwich 'Dual - Antibody': capture anti-TIGIT, TIGIT-Fc-LIGHT titrated, detection anti-LIGHT (same curve as the capture row).

Test [3] addresses T3, cell surface human PVR (CHO-K1/hPVR cells) (human, UniProt P15151 21-417).
T3 construct: whole, on cells; also called cell surface PVR; CD155(PVR)
T3 sequence (looked up): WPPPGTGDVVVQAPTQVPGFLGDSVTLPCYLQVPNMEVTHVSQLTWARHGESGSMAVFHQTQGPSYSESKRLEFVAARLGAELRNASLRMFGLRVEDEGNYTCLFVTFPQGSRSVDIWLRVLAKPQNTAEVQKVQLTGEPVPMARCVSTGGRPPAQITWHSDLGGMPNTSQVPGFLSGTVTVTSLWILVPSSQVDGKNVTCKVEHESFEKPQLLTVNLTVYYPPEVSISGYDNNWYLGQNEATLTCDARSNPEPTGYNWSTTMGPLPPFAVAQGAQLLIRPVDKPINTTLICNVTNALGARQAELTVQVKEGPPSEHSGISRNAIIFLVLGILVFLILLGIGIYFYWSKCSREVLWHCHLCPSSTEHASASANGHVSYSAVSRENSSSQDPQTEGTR
Kind of test: flow cytometry, CHO-K1 cells stably expressing human PVR; cell surface PVR.

Test [4] deals with T4, recombinant human Nectin-4 (human, UniProt Q96NY8 32-349).
T4 sequence (looked up): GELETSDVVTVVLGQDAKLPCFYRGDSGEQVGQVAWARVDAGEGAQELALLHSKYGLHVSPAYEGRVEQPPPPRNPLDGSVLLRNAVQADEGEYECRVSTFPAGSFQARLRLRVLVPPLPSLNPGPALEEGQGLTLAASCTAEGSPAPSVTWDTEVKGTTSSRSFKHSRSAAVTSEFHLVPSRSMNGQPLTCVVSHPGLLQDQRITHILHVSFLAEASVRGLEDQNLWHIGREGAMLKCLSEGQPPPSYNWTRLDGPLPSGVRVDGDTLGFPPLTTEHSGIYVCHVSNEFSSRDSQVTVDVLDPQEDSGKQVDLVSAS
Kind of test: MSD: capture hNectin-4; detection anti-Fc-HRP.

The target of the next test is T5, recombinant human LTβR (human, UniProt P36941 31-227, limits assumed).
T5 construct: Bought from Acro Biosystems or Sino Biological; construct limits and tag not specified; also called rhLTβR; TNFRSF3
The test can be described thus: BLI (Octet-Red96), tagged rhLTβR immobilised on biosensor. Here is the method:
(§1) Bio-Layer interferometry-based affinity testing was used to determine the on-rates (Ka), off-rates (Kd) and binding affinities (KD) of the TIGIT-Fc-LIGHT chimeric protein to intended binding targets, using histidine- or biotin-tagged versions of the human recombinant proteins (PVR, HVEM, LTβR, PVRL2, PVRL3, and Nectin-4; purchased from Acro Biosystems or Sino Biological). Commercially available or internally produced single-sided fusion protein controls (TIGIT-Fc and Fc-LIGHT) were also tested in parallel. Targets were immobilized at a concentration of 3 μg/mL in Kinetics buffer (PBS/0.1% Tween-20/1% BSA; pH7.0) to anti-pentaHis or streptavidin coated biosensors. Direct binding of fusion proteins to recombinant target proteins was performed on an Octet-Red96 BLI instrument, using association and dissociation times of 90 and 120 seconds, respectively.
Protein-protein interactions (PPI) between the fusion proteins and their cognate binding partners were characterized using both recombinant protein and cell-based methods. First, bio-layer interferometry-based affinity testing was used to assess the kinetics of receptor/ligand binding.
Background: In BLI a coated tip is dipped into the sample, and binding shifts an interference pattern.

The target of test [5] is T6, recombinant human CD112 (PVRL2) (human, UniProt Q92692 32-360).
T6 construct: also called rhCD112 (PVRL2); Nectin-2
T6 sequence (looked up): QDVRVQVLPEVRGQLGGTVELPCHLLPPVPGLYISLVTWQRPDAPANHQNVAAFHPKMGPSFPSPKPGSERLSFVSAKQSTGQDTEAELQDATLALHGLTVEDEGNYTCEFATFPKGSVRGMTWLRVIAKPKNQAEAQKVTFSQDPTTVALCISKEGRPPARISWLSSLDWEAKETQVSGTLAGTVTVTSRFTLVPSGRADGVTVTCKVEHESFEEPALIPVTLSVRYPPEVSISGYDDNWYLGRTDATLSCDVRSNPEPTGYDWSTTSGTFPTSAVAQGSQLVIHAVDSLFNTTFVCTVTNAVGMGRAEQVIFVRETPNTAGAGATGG
Kind of test: BLI (Octet-Red96), tagged rhCD112 (PVRL2) immobilised on biosensor. As to the method: as §1

T5 sequence (P36941 31-227 limits assumed): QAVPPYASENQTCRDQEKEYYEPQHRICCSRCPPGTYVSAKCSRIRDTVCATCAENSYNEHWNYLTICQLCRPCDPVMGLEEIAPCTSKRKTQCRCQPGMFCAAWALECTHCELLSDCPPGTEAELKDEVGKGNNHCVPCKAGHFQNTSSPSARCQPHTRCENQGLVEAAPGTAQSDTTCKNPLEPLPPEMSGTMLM
T1 sequence (P36941 31-435): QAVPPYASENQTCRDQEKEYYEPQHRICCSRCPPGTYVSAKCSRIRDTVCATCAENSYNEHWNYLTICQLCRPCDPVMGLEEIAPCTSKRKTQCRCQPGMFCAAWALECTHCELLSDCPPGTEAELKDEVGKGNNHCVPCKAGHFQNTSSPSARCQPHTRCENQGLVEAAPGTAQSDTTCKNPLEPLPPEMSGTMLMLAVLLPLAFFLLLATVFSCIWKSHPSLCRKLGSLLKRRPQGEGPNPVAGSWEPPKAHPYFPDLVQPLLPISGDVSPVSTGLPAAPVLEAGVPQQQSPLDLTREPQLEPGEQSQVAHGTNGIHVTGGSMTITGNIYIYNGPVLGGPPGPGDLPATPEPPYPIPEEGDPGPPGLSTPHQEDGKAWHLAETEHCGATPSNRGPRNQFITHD

B1: human TIGIT-Fc-LIGHT chimeric protein (Fc fusion)
chain: MMTGTIETTGNISAEKGGSIILQCHLSSTTAQVTQVNWEQQDQLLAICNADLGWHISPSFKDRVAPGPGLGLTLQSLTVNDTGEYFCIYHTYPDGTYTGRIFLEVLESSVAEHGARFQIPSKYGPPCPPCPAPEFLGGPSVFLFPPKPKDQLMISRTPEVTCVVVDVSQEDPEVQFNWYVDGVEVHNAKTKPREEQFNSTYRVVSVLTVLHQDWLSGKEYKCKVSSKGLPSSIEKTISNATGQPREPQVYTLPPSQEEMTKNQVSLTCLVKGFYPSDIAVEWESNGQPENNYKTTPPVLDSDGSFFLYSRLTVDKSRWQEGNVFSCSVLHEALHNHYTQKSLSLSLGKIEGRMDLQLHWRLGEMVTRLPDGPAGSWEQLIQERRSHEVNPAAHLTGANSSLTGSGGPLLWETQLGLAFLRGLSYHDGALVVTKAGYYYIYSKVQLGGVGCPLGLASTITHGLYKRTPRYPEELELLVSQQSPCGRATSSSRVWWDSSFLGGVVHLEAGEKVVVRVLDERLVRLRDGTRSYFGAFMV
notes: Said to exist as a hexamer (dimer of trimers); Glycosylated; also called hTIGIT-Fc-LIGHT; TIGIT-Fc(IgG4)-LIGHT
Turning to B1, the EC50 in test [1] stood at 87.1 nM; in test [2] it was 1.15 nM; in test [3], 35.4 nM. The binding result in test [4] was “binds”. Also, the Kd was 3.52 nM in the test with recombinant human LTβR and 3 nM in test [5]. For the same molecule, the koff with recombinant human LTβR came to 7.44e-05 s⁻¹; in test [5], 0.000471 s⁻¹. The kon with recombinant human LTβR worked out at 21200 M⁻¹ s⁻¹; in test [5], 172000 M⁻¹ s⁻¹.

Usually EC50 stands for the concentration at which the effect is half-maximal. A low value points to greater potency. Broadly, the Kd is the constant that tells how readily two partners part at equilibrium. The term koff denotes a measure of how fast the partners let go of each other. For orientation: kon means the second-order rate constant of association.
